The chains are these.
B1: target 3 complement block 2-7 (mixed)
RNA 1: CACCCGUGCAAAAUUGCAGGGGUCUAAAACGACCUGAAUAUUUCAGAUCAAA
RNA 2: GGGAAUGGAUCCACAUCUACGAAUUCGUUUUUGAUCUGAAAUAUAGUCCACUGCAGAUCGGAAGAGCACACGU
B2: target 3 U8C,U22C (mixed)
RNA 1: CACCCGUGCAAAAUUGCAGGGGUCUAAAACGACCUGAAUAUUUCAGAUCAAA
RNA 2: GGGAAUGGAUCCACAUCUACGAAUUCGUUCUUGAUCUGAAAUACUCAGGUCUGCAGAUCGGAAGAGCACACGU
B3: target 3 insG 3' of 6,insG 3' of 1 (mixed)
RNA 1: CACCCGUGCAAAAUUGCAGGGGUCUAAAACGACCUGAAUAUUUCAGAUCAAA
RNA 2: GGGAAUGGAUCCACAUCUACGAAUUCGUUUUUGAUCUGAAAUAUUCGAGGUCGUGCAGAUCGGAAGAGCACACGU
B4: target 3 insG 3' of 9,insG 3' of 8 (mixed)
RNA 1: CACCCGUGCAAAAUUGCAGGGGUCUAAAACGACCUGAAUAUUUCAGAUCAAA
RNA 2: GGGAAUGGAUCCACAUCUACGAAUUCGUUUUUGAUCUGAAAUAGUGUCAGGUCUGCAGAUCGGAAGAGCACACGU
B5: target 3 insG 3' of 6,insC 3' of 2 (mixed)
RNA 1: CACCCGUGCAAAAUUGCAGGGGUCUAAAACGACCUGAAUAUUUCAGAUCAAA
RNA 2: GGGAAUGGAUCCACAUCUACGAAUUCGUUUUUGAUCUGAAAUAUUCGAGGUCCUGCAGAUCGGAAGAGCACACGU
B6: target 3 complement block 1-6 (mixed)
RNA 1: CACCCGUGCAAAAUUGCAGGGGUCUAAAACGACCUGAAUAUUUCAGAUCAAA
RNA 2: GGGAAUGGAUCCACAUCUACGAAUUCGUUUUUGAUCUGAAAUAUUGUCCAGUGCAGAUCGGAAGAGCACACGU
B7: target 3 insA 3' of 6,insA 3' of 2 (mixed)
RNA 1: CACCCGUGCAAAAUUGCAGGGGUCUAAAACGACCUGAAUAUUUCAGAUCAAA
RNA 2: GGGAAUGGAUCCACAUCUACGAAUUCGUUUUUGAUCUGAAAUAUUCAAGGUACUGCAGAUCGGAAGAGCACACGU
B8: target 3 U2A,C6G (mixed)
RNA 1: CACCCGUGCAAAAUUGCAGGGGUCUAAAACGACCUGAAUAUUUCAGAUCAAA
RNA 2: GGGAAUGGAUCCACAUCUACGAAUUCGUUUUUGAUCUGAAAUAUUGAGGACUGCAGAUCGGAAGAGCACACGU
B9: target 3 insU 3' of 4,insG 3' of 2 (mixed)
RNA 1: CACCCGUGCAAAAUUGCAGGGGUCUAAAACGACCUGAAUAUUUCAGAUCAAA
RNA 2: GGGAAUGGAUCCACAUCUACGAAUUCGUUUUUGAUCUGAAAUAUUCAGUGUGCUGCAGAUCGGAAGAGCACACGU
B10: target 3 A11C,A18C (mixed)
RNA 1: CACCCGUGCAAAAUUGCAGGGGUCUAAAACGACCUGAAUAUUUCAGAUCAAA
RNA 2: GGGAAUGGAUCCACAUCUACGAAUUCGUUUUUGCUCUGAACUAUUCAGGUCUGCAGAUCGGAAGAGCACACGU
B11: target 3 U2G,G3A (mixed)
RNA 1: CACCCGUGCAAAAUUGCAGGGGUCUAAAACGACCUGAAUAUUUCAGAUCAAA
RNA 2: GGGAAUGGAUCCACAUCUACGAAUUCGUUUUUGAUCUGAAAUAUUCAGAGCUGCAGAUCGGAAGAGCACACGU
B12: target 3 insA 3' of 7,insC 3' of 5 (mixed)
RNA 1: CACCCGUGCAAAAUUGCAGGGGUCUAAAACGACCUGAAUAUUUCAGAUCAAA
RNA 2: GGGAAUGGAUCCACAUCUACGAAUUCGUUUUUGAUCUGAAAUAUUACACGGUCUGCAGAUCGGAAGAGCACACGU
B13: target 3 insU 3' of 16,insC 3' of 4 (mixed)
RNA 1: CACCCGUGCAAAAUUGCAGGGGUCUAAAACGACCUGAAUAUUUCAGAUCAAA
RNA 2: GGGAAUGGAUCCACAUCUACGAAUUCGUUUUUGAUCUUGAAAUAUUCAGCGUCUGCAGAUCGGAAGAGCACACGU
B14: target 3 G19C,U20G (mixed)
RNA 1: CACCCGUGCAAAAUUGCAGGGGUCUAAAACGACCUGAAUAUUUCAGAUCAAA
RNA 2: GGGAAUGGAUCCACAUCUACGAAUUCGUUUUGCAUCUGAAAUAUUCAGGUCUGCAGAUCGGAAGAGCACACGU
B15: target 3 insG 3' of 6,insA 3' of 1 (mixed)
RNA 1: CACCCGUGCAAAAUUGCAGGGGUCUAAAACGACCUGAAUAUUUCAGAUCAAA
RNA 2: GGGAAUGGAUCCACAUCUACGAAUUCGUUUUUGAUCUGAAAUAUUCGAGGUCAUGCAGAUCGGAAGAGCACACGU
B16: target 3 G4C,A18G (mixed)
RNA 1: CACCCGUGCAAAAUUGCAGGGGUCUAAAACGACCUGAAUAUUUCAGAUCAAA
RNA 2: GGGAAUGGAUCCACAUCUACGAAUUCGUUUUUGGUCUGAAAUAUUCACGUCUGCAGAUCGGAAGAGCACACGU
B17: target 3 insU 3' of 5,insU 3' of 5 (mixed)
RNA 1: CACCCGUGCAAAAUUGCAGGGGUCUAAAACGACCUGAAUAUUUCAGAUCAAA
RNA 2: GGGAAUGGAUCCACAUCUACGAAUUCGUUUUUGAUCUGAAAUAUUCAUUGGUCUGCAGAUCGGAAGAGCACACGU
B18: target 3 del6,del22 (mixed)
RNA 1: CACCCGUGCAAAAUUGCAGGGGUCUAAAACGACCUGAAUAUUUCAGAUCAAA
RNA 2: GGGAAUGGAUCCACAUCUACGAAUUCGUUUUGAUCUGAAAUAUUAGGUCUGCAGAUCGGAAGAGCACACGU
B19: target 3 insU 3' of 13,insG 3' of 2 (mixed)
RNA 1: CACCCGUGCAAAAUUGCAGGGGUCUAAAACGACCUGAAUAUUUCAGAUCAAA
RNA 2: GGGAAUGGAUCCACAUCUACGAAUUCGUUUUUGAUCUGAUAAUAUUCAGGUGCUGCAGAUCGGAAGAGCACACGU
B20: target 3 insU 3' of 4,insU 3' of 3 (mixed)
RNA 1: CACCCGUGCAAAAUUGCAGGGGUCUAAAACGACCUGAAUAUUUCAGAUCAAA
RNA 2: GGGAAUGGAUCCACAUCUACGAAUUCGUUUUUGAUCUGAAAUAUUCAGUGUUCUGCAGAUCGGAAGAGCACACGU
B21: target 3 insG 3' of 9,insG 3' of 2 (mixed)
RNA 1: CACCCGUGCAAAAUUGCAGGGGUCUAAAACGACCUGAAUAUUUCAGAUCAAA
RNA 2: GGGAAUGGAUCCACAUCUACGAAUUCGUUUUUGAUCUGAAAUAGUUCAGGUGCUGCAGAUCGGAAGAGCACACGU
B22: target 3 U2A (mixed)
RNA 1: CACCCGUGCAAAAUUGCAGGGGUCUAAAACGACCUGAAUAUUUCAGAUCAAA
RNA 2: GGGAAUGGAUCCACAUCUACGAAUUCGUUUUUGAUCUGAAAUAUUCAGGACUGCAGAUCGGAAGAGCACACGU
B23: target 3 insA 3' of 4,insU 3' of 3 (mixed)
RNA 1: CACCCGUGCAAAAUUGCAGGGGUCUAAAACGACCUGAAUAUUUCAGAUCAAA
RNA 2: GGGAAUGGAUCCACAUCUACGAAUUCGUUUUUGAUCUGAAAUAUUCAGAGUUCUGCAGAUCGGAAGAGCACACGU
B24: target 3 U8G,A18G (mixed)
RNA 1: CACCCGUGCAAAAUUGCAGGGGUCUAAAACGACCUGAAUAUUUCAGAUCAAA
RNA 2: GGGAAUGGAUCCACAUCUACGAAUUCGUUUUUGGUCUGAAAUAGUCAGGUCUGCAGAUCGGAAGAGCACACGU
B25: target 3 insC 3' of 8,insU 3' of 5 (mixed)
RNA 1: CACCCGUGCAAAAUUGCAGGGGUCUAAAACGACCUGAAUAUUUCAGAUCAAA
RNA 2: GGGAAUGGAUCCACAUCUACGAAUUCGUUUUUGAUCUGAAAUAUCUCAUGGUCUGCAGAUCGGAAGAGCACACGU
B26: target 1 C2G,C7G (mixed)
RNA 1: CACCCGUGCAAAAAUGCAGGGGUCUAAAACUGAGCGGAUAACCUCUCUAUGG
RNA 2: GGGAAUGGAUCCACAUCUACGAAUUCGUACCAUAGAGAGGUUAUGCGCUGACCGAGAUCGGAAGAGCACACGU
B27: target 1 insU 3' of 20,insC 3' of 20 (mixed)
RNA 1: CACCCGUGCAAAAAUGCAGGGGUCUAAAACUGAGCGGAUAACCUCUCUAUGG
RNA 2: GGGAAUGGAUCCACAUCUACGAAUUCGUACCAUCUAGAGAGGUUAUCCGCUCACCGAGAUCGGAAGAGCACACGU

The data set has as its target T1, EsCas13d, nuclease-dead (Eubacterium siraeum, UniProt B0MS50, R295A;H300A;R849A;H854A).
T1 sequence: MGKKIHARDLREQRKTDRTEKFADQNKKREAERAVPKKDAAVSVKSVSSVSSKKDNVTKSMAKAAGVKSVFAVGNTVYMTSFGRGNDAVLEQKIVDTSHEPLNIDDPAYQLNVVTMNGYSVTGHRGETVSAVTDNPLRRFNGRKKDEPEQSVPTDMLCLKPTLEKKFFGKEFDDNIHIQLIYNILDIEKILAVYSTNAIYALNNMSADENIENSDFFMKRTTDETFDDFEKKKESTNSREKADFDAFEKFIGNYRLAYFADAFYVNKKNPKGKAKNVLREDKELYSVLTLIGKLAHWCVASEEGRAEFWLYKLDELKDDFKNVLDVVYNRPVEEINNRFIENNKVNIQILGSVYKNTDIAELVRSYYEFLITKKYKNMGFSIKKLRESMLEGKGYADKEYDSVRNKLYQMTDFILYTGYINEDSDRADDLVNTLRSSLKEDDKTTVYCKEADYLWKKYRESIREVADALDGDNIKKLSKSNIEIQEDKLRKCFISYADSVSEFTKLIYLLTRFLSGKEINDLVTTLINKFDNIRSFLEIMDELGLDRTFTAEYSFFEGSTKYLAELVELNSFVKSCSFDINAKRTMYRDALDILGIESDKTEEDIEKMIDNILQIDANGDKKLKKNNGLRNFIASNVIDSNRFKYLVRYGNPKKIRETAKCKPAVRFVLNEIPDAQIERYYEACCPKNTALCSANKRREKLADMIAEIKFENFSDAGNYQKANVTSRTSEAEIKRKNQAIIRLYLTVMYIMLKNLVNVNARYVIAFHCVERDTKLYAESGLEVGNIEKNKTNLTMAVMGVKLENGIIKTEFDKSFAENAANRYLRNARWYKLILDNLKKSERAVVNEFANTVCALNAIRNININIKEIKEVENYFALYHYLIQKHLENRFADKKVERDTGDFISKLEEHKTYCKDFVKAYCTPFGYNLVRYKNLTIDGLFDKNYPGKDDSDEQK
The experiment in a line: crRNA (strand 1, pre-loaded); Mg2+; 40 mM Tris-HCl pH 7.5, 150 mM NaCl, 6 mM MgCl2, 1 mM DTT, 0.1% Tween-20, 0.2 mg/ml BSA; 25 C; 10 min per concentration, then washed. To be noted: tags: His6-TwinStrep-SUMO cleaved; N-terminal SNAP kept (SNAP-Surface 488); label: 3' end held by stalled T7 RNA polymerase.
On to B1, for which binding was put at a Kd of 54.5 ± 7 nM.
B2: binding was characterised by a dissociation constant (Kd) of 46 ± 8.5 nM.
Then B3, with 25 ± 10.5 nM; and B4, with 57 ± 6 nM.
The molecule B5 had a Kd of 74 ± 27 nM.
Then B6, with 28.5 ± 4.5 nM.
Consider B7, for which the Kd was found to be 4.2 ± 0.55 nM.
B8 registered an equilibrium dissociation constant (Kd) of 37 ± 5 nM.
Then B9, with 19.5 ± 2.35 nM; and B10, with 39 ± 4 nM; and B11, with 44 ± 6.5 nM.
Then B12, with 28.2 ± 1.85 nM.
Under B13 stands 84.5 ± 27 nM.
Molecule B14 returned a dissociation constant Kd of roughly 49 nM.
Under B15 stands 76 ± 34 nM; under B16, 34.4 ± 3.95 nM; under B17, 3.87 ± 0.32 nM.
Then B18, with 19.4 ± 1.9 nM.
B19 came in with an equilibrium dissociation constant (Kd) of 35.5 ± 7 nM.
Regarding B20, the affinity, expressed as Kd, was 15.2 ± 1.8 nM.
Under B21 stands 63.5 ± 14.5 nM; under B22, 24.3 ± 1.8 nM; under B23, 72 ± 18.5 nM.
The molecule B24 returned a Kd of 72.5 ± 14.5 nM.
Consider B25, for which the Kd was found to be 79.5 ± 15 nM.
Under B26 stands 8.9 ± 0.4 nM; under B27, 75 ± 13 nM.

For orientation: Kd means the equilibrium constant for the complex coming apart.

(Values after PMC10786891, “Massively parallel profiling of RNA-targeting CRISPR-Cas13d”.)
